Assays:
[1] = stability in rat plasma (in vitro metabolic stability studies); format: in vitro ADME
Protocol: (§1) For example, determination of metabolic stability is commonly examined when assessing the toxicity of a compound as it is one of several major determinates in defining the oral bioavailability and systemic clearance of a compound. After a compound is administered orally, it first encounters metabolic enzymes in the gastrointestinal lumen as well as in the intestinal epithelium. After it is absorbed into the bloodstream through the intestinal epithelium, it is first delivered to the liver via the portal vein. A compound can be effectively cleared by intestinal or hepatic metabolism before it reaches systemic circulation, a process known as first pass metabolism. The stability of a compound towards metabolism within the liver as well as extrahepatic tissues will ultimately determine the concentration of the compound found in the systemic circulation and affect its half-life and residence time within the body. Cytochrome P450 (CYP) enzymes are found primarily in the liver but also in the intestinal wall, lungs, kidneys and other extrahepatic organs and are the major enzymes involved in compound metabolism. Many compounds undergo deactivation by CYPs, either directly or by facilitated excretion from the body. […]
(§2) Further safety pharmacology was assessed in vitro using the human ether-a-go-go related gene (hERG) assay for determining possible cardio-toxic effects.

[2] = stability in dog plasma (in vitro metabolic stability studies); format: in vitro ADME
Protocol: as §1, §2

[3] = stability in human plasma (in vitro metabolic stability studies); format: in vitro ADME
Protocol: as §1, §2

[4] = in vitro metabolic stability: breakdown into metabolites; format: in vitro ADME
Protocol: as §1, §2

[5] = test system: 9 major CYP liver enzymes; test: reactivity to CYP liver enzymes; format: in vitro ADME; settings: in vitro
Protocol: as §1, §2

[6] = test system: tester strains (histidine (his) biosynthetic operon mutants); test: Ames reverse mutation assay; format: cell-based; settings: any of the tested doses
From the text: The Ames reverse mutation Assay is another common toxicology assay for assessing the toxicity of a compound. The Ames Assay, utilizes several different tester strains, each with a distinct mutation in one of the genes comprising the histidine (his) biosynthetic operon (Ames, B. N., et al., (1975) Mutation Res. 31:347-363). […] The Ames Assay is capable of detecting several different types of mutations (genetic damage) that may occur in one or more of the tester strains. The practice of using an in vitro bacterial assay to evaluate the genotoxic activity of drug candidates is based on the prediction that a substance that is mutagenic in a bacterium is likely to be carcinogenic in laboratory animals, and by extension may be carcinogenic or mutagenic to humans.
as §2

[7] = in vivo
From the text: (§3) Other methods of assessing the toxicity of compounds include in vivo studies which administer relatively large doses of a test compound to a group of animals to determine the level which is lethal to a percentage of the population (mean lethal dose LD50 or mean lethal concentration LC50). Toxicity of a compound can also be assessed in vivo by examining whether a compound produces statistically significant negative effects on cardiac, blood pressure, central nervous system (CNS), body weight, food intake, gross or microscopic pathology, clinical pathology, or respiratory measures in an animal.
(§4) Furthermore, toxicology of the composition of formula III was also investigated in non-clinical in vivo studies in both rats and dogs.

[8] = mortality in rat animal model; format: in vivo; settings: any tested dose
From the text: as §3, §4

[9] = mortality in dog animal model; format: in vivo; settings: any tested dose
From the text: as §3, §4

[10] = mortality in pig animal model; format: in vivo; settings: any tested dose
From the text: as §3, §4

Compound: CC1(C)C(/C=C/C2=C(Oc3ccc(S(=O)(=O)O)cc3)C(=C/C=C3/N(CCCS(=O)(=O)O)c4ccccc4C3(C)CCCC(=O)NCCCCC(NC(=O)CCCCCCC(=O)NCCCC[C@H](NC(=O)N[C@@H](CCC(=O)O)C(=O)O)C(=O)O)C(=O)O)/CCC2)=[N+](CCCS(=O)(=O)[O-])c2ccccc21 (stereo partly drawn) [formula III]
- stability in plasma [1]: stable
- stability in plasma [2]: stable
- stability in plasma [3]: stable
- breakdown into metabolites [4]: does not appear to be broken down into metabolites
- reactivity to CYP liver enzymes [5]: does not show any significant reactivity
- mutagenicity [6]: does not show any mutagenicity
- effects on body weight, food intake, gross or microscopic pathology and clinical pathology ([7]; dog): no significant effects
- effects on cardiac, blood pressure or respiratory measures ([7]; dog): no statistically significant negative effects
- effects on the central nervous system (CNS) ([7]; rat): no biologically meaningful effects
- mortality [8]: No mortality
- mortality [9]: No mortality
- mortality [10]: No mortality
